As usually defined, the EC50 is the concentration that produces a half-maximal response. A word on the Kd: it is a measure of binding affinity in units of concentration.

We go through one molecule from patent US20220242945A1 (SORRISO PHARMACEUTICALS, published 2022).

Test [1] deals with T1, THP-1 derived nhIL-23 (human, UniProt Q9NPF7 20-189; P29460 23-328).
T1 sequence (looked up) 1: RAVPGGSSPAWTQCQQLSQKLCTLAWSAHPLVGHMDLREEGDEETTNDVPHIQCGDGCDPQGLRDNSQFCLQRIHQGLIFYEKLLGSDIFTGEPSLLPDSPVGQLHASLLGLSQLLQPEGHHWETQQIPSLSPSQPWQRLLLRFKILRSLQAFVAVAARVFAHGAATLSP
T1 sequence (looked up) 2: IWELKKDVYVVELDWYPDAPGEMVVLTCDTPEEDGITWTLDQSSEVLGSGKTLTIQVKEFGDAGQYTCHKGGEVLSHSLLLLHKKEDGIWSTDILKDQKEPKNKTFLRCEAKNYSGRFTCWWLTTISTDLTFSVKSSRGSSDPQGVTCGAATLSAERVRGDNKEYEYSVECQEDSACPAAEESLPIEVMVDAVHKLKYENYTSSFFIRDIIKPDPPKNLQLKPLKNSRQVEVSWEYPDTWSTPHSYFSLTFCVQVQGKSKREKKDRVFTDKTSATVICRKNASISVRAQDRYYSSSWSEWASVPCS
Put plainly: cell-based or functional assay.

The target in test [2] is T2, recombinant human IL-23 (human, UniProt Q9NPF7 20-189; P29460 23-328).
T2 construct: Heterodimer of p19 and p40; also called hIL-23; interleukin-23; not shown: single C-terminal 6xHis tag
T2 sequence 1: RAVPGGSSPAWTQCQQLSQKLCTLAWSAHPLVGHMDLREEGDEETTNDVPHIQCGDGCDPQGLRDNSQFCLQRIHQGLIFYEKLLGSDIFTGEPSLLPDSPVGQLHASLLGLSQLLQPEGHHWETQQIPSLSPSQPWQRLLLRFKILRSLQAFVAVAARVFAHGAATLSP
T2 sequence 2: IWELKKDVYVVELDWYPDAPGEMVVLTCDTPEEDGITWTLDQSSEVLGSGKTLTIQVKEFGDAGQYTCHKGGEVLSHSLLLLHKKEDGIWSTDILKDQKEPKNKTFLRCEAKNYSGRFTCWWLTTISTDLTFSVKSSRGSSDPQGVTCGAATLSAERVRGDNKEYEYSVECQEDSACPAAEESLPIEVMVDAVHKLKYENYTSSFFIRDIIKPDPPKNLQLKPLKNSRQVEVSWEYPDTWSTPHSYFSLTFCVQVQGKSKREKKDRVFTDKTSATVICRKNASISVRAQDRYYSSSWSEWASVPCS
Kind of test: IL-23-IL-23R neutralisation ELISA. The protocol: (§1) Maxisorp 96-well plates were coated overnight with 50 μl/well 0.3 μg/ml IL-23R-Fc then blocked with 4% milk, 1% BSA.
The Family L ICVD 12G1 underwent sequence modification to produce multiple variant ICVDs. These variant ICVDs were tested in the potency and protease stability assays detailed above.

Test [3] concerns the target IL-6 (Homo sapiens (Human), UniProt P05231 30-212). Kind of test: binding or inhibition ELISA (which of the two is not said).
For test [4], the target named is T3, rhesus monkey IL-12 (rhesus monkey, UniProt P48091 23-219; P48095 23-328).
T3 sequence (looked up) 1: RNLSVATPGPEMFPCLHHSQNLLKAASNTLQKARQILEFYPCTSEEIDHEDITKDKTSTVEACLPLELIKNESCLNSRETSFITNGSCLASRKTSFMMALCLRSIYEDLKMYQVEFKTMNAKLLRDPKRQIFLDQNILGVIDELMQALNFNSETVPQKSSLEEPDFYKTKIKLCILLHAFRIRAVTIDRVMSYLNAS
T3 sequence (looked up) 2: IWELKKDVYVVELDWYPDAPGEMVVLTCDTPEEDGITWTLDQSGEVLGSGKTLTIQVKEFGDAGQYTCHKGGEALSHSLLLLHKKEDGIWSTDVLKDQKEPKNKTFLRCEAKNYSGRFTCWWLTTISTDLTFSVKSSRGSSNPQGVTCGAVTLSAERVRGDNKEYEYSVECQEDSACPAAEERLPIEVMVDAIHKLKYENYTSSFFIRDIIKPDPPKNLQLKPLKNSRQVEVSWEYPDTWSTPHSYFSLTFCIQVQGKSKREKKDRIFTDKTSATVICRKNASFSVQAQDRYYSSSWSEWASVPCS
Described as above.

The target in test [5] is T4, Human IL-12 (human, UniProt P29459 23-219; P29460 23-328).
T4 sequence (looked up) 1: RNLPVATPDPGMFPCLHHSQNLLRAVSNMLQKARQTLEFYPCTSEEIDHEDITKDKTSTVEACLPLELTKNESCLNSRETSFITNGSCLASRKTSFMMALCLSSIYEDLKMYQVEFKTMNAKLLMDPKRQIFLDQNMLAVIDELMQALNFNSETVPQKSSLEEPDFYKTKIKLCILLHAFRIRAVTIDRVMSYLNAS
T4 sequence (looked up) 2: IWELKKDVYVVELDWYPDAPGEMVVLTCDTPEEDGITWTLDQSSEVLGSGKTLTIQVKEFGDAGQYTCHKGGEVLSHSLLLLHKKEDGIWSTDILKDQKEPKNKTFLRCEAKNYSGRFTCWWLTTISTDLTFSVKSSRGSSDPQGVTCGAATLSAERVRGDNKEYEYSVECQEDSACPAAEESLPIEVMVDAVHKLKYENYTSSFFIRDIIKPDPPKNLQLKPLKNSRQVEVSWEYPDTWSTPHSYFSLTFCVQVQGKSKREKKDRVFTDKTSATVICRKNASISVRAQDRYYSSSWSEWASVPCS
Described as above.

Test [6] deals with T2, recombinant human IL-23. Kind of test: SPR (Biacore), recombinant human IL-23 captured by an anti-p40 mAb on the chip, ICVD flowed over; average KD. A general note: Surface plasmon resonance follows binding to a sensor surface in real time, without labels.
For test [7], the target named is T2, recombinant human IL-23. Put plainly: IL-23-IL-23R inhibition ELISA (Evaluation Method A), side by side with brazikumab. As for the experimental part: as §1
(An ELISA detects its analyte on a solid surface through an enzyme-linked reagent.)

Sequence of IL-6 (P05231 30-212 limits assumed): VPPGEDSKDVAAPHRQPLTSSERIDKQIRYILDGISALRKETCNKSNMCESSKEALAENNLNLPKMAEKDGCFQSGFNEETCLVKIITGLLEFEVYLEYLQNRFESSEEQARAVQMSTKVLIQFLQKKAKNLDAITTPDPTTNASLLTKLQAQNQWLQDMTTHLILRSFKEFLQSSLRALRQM

B1: ID-L253T (VHH)
VHH: DVQLVESGGGQVQPGGSLSLSCESSVSIWSFKVMGWFRQVPGKQRELVATITTGGSPDYSDSVKGRFTISRDYDKRTLYLQMNSLKPEDTAVYYCAGRLWAHITSSGHDVWGQGTQVTVSS
notes: Optimised variant of 12G1
Turning to B1, the “Mouse splenocyte (EC50; mIL-17 secretion, Evaluation Method C)” value in test [1] worked out at 13.5 nM. In addition, the EC50 in test [2] came out at 0.23 nM; in test [7], 0.202 nM. The binding result in test [3], in test [4] and in test [5] was “no binding” throughout. In addition, in test [6], the Kd came to 0.032 nM.
